Consider one molecule from article PMC9256704, “Oncogenic TRIB2 interacts with and regulates PKM2 to promote aerobic glycolysis and lung cancer cell procession” (Cell Death Discovery, 2022).

In the test the target is T1, PKM2 (ab89364, Abcam) (human, UniProt P14618 1-531).
T1 construct: human M2 isoform of pyruvate kinase (PKM2), bought recombinant protein; see the vendor's sheet for ab89364; also called PKM2 protein; source: bought: Abcam (ab89364)
Briefly: BLI; biotinylated TRIB2 loaded onto SSA biosensors, blocked with biocytin (5 μg/ml) for 60 s; PKM2 diluted in PBS as analyte; Octet data analysis software. The conditions noted are these: both partners purified. Background: In BLI a coated tip is dipped into the sample, and binding shifts an interference pattern.

Broadly, the Kd is a measure of binding affinity in units of concentration. A low value points to tighter binding.

T1 sequence (P14618 whole entry, canonical isoform): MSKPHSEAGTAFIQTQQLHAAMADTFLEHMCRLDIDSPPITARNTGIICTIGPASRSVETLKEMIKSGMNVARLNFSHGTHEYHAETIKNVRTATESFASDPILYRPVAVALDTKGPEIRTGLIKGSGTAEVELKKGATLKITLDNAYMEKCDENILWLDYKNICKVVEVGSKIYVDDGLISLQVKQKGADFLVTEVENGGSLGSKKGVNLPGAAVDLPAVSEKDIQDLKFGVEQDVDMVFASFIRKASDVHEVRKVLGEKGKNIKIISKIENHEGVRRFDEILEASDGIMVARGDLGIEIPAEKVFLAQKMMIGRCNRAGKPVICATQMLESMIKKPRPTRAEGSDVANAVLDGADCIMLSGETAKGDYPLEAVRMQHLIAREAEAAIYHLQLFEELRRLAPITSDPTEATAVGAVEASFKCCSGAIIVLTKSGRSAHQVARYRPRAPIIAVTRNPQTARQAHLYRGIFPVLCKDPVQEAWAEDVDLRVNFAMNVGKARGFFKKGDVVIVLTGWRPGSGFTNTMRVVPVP

B1: recombinant TRIB2 protein (TP301210, OriGene), biotinylated (natural protein, human, UniProt Q92519 1-343, looked up)
chain: MNIHRSTPITIARYGRSRNKTQDFEELSSIRSAEPSQSFSPNLGSPSPPETPNLSHCVSCIGKYLLLEPLEGDHVFRAVHLHSGEELVCKVFDISCYQESLAPCFCLSAHSNINQITEIILGETKAYVFFERSYGDMHSFVRTCKKLREEEAARLFYQIASAVAHCHDGGLVLRDLKLRKFIFKDEERTRVKLESLEDAYILRGDDDSLSDKHGCPAYVSPEILNTSGSYSGKAADVWSLGVMLYTMLVGRYPFHDIEPSSLFSKIRRGQFNIPETLSPKAKCLIRSILRREPSERLTSQEILDHPWFSTDFSVSNSAYGAKEVSDQLVPDVNMEENLDPFFN
modifications: biotinylated
notes: human Tribbles homologue 2 (TRIB2), bought recombinant protein; also called human TRIB2; source: bought: OriGene (TP301210)
With B1, the Kd came to 7.44 nM.
